Measured values: publication doi:10.1101/2025.03.31.646301, “Discovery of Tankyrase scaffolding inhibitor specifically targeting the ARC4 peptide binding domain” (bioRxiv, 2025)
Ends that are not written are not given here.

Target: T1, TNKS2 ARC4 fused with mCerulean (CFP) (human, UniProt Q9H2K2 488-649)
T1 construct: Tankyrase 2 (TNKS2), human, ankyrin repeat cluster 4 (ARC4); residues 487-649 are stated only for the crystallised TNKS2 ARC4; Vector pNIC-CFP: mCerulean inserted between the 6xHis-tag and the TEV site of pNIC28-Bsa4; the label reads CFP first, so the tags are probably N-terminal; also called CFP-TNKS2 ARC4; source: E. coli BL21(DE3), purified (IMAC, SEC)
T1 sequence: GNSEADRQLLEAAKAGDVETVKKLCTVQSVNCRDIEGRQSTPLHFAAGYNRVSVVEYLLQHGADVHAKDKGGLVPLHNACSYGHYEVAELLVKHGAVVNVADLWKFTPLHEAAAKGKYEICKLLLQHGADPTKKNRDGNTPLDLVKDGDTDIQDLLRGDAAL
Experiment: FRET or BRET; ratiometric FRET in solution: CFP-TNKS1/2 ARC 100 nM and YFP-REAGDGEE 200 nM, 10 mM Bis-Tris Propane pH 7, 3% PEG 20000, 0.01% Triton X-100, 0.5 mM TCEP; small-molecule compounds added (screen at 30 uM, dose response); 1 M guanidine hydrochloride as control of total inhibition
Details: both partners purified

- binding result: binds
B1: 8-residues peptide optimized for the binding of ARCs (REAGDGEE) fused with mCitrine (YFP) (peptide)
chain: REAGDGEE
modifications: also: fused with mCitrine (YFP)
notes: Vector pNIC-YFP: mCitrine inserted between the 6xHis-tag and the TEV site of pNIC28-Bsa4; the label reads YFP first, so the peptide probably stands at the C-terminal end of the fusion; also called optimized peptide; source: E. coli BL21(DE3), purified (IMAC, SEC)
